PMC12416549 (2024)

T1: TNFR1 (Homo sapiens, UniProt P19438)
T1 chain: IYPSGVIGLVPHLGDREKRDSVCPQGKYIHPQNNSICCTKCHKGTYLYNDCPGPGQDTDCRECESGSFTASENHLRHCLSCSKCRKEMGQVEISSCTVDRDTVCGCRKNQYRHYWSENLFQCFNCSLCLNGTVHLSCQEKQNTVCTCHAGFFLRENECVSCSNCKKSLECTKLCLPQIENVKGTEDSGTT


Target: T1, TNFR1
Experiment: yeast display SC50

Binder	apparent Kd (screen) [nM]
E67L (designed binder) MTLQELLREEALRRAEAEAFRYALELLAEKFPEQKEYLLDLAEEIESQIRSLSGVDVEDVRKFLDKLWAWVKELLAEHPAELAEVEAARAARLAELRAEVEAKVAA	10.4
V104A (designed binder) MTLQELLREEALRRAEAEAFRYALELLAEKFPEQKEYLLDLAEEIESQIRSLSGVDVEDVRKFLDKEWAWVKELLAEHPAELAEVEAARAARLAELRAEVEAKAAA	0.653
L6P (designed binder) MTLQEPLREEALRRAEAEAFRYALELLAEKFPEQKEYLLDLAEEIESQIRSLSGVDVEDVRKFLDKEWAWVKELLAEHPAELAEVEAARAARLAELRAEVEAKVAA	4.39
A17L (designed binder) MTLQELLREEALRRAELEAFRYALELLAEKFPEQKEYLLDLAEEIESQIRSLSGVDVEDVRKFLDKEWAWVKELLAEHPAELAEVEAARAARLAELRAEVEAKVAA	0.277
L93K (designed binder) MTLQELLREEALRRAEAEAFRYALELLAEKFPEQKEYLLDLAEEIESQIRSLSGVDVEDVRKFLDKEWAWVKELLAEHPAELAEVEAARAARKAELRAEVEAKVAA	0.718
E58L (designed binder) MTLQELLREEALRRAEAEAFRYALELLAEKFPEQKEYLLDLAEEIESQIRSLSGVDVLDVRKFLDKEWAWVKELLAEHPAELAEVEAARAARLAELRAEVEAKVAA	0.446
W70G (designed binder) MTLQELLREEALRRAEAEAFRYALELLAEKFPEQKEYLLDLAEEIESQIRSLSGVDVEDVRKFLDKEWAGVKELLAEHPAELAEVEAARAARLAELRAEVEAKVAA	16.7
V100M (designed binder) MTLQELLREEALRRAEAEAFRYALELLAEKFPEQKEYLLDLAEEIESQIRSLSGVDVEDVRKFLDKEWAWVKELLAEHPAELAEVEAARAARLAELRAEMEAKVAA	0.49
A15M (designed binder) MTLQELLREEALRRMEAEAFRYALELLAEKFPEQKEYLLDLAEEIESQIRSLSGVDVEDVRKFLDKEWAWVKELLAEHPAELAEVEAARAARLAELRAEVEAKVAA	0.653
A23Y (designed binder) MTLQELLREEALRRAEAEAFRYYLELLAEKFPEQKEYLLDLAEEIESQIRSLSGVDVEDVRKFLDKEWAWVKELLAEHPAELAEVEAARAARLAELRAEVEAKVAA	1.4
L82Q (designed binder) MTLQELLREEALRRAEAEAFRYALELLAEKFPEQKEYLLDLAEEIESQIRSLSGVDVEDVRKFLDKEWAWVKELLAEHPAEQAEVEAARAARLAELRAEVEAKVAA	0.956
A105L (designed binder) MTLQELLREEALRRAEAEAFRYALELLAEKFPEQKEYLLDLAEEIESQIRSLSGVDVEDVRKFLDKEWAWVKELLAEHPAELAEVEAARAARLAELRAEVEAKVLA	0.653
D65F (designed binder) MTLQELLREEALRRAEAEAFRYALELLAEKFPEQKEYLLDLAEEIESQIRSLSGVDVEDVRKFLFKEWAWVKELLAEHPAELAEVEAARAARLAELRAEVEAKVAA	0.653
E81L (designed binder) MTLQELLREEALRRAEAEAFRYALELLAEKFPEQKEYLLDLAEEIESQIRSLSGVDVEDVRKFLDKEWAWVKELLAEHPALLAEVEAARAARLAELRAEVEAKVAA	0.653
E33M (designed binder) MTLQELLREEALRRAEAEAFRYALELLAEKFPMQKEYLLDLAEEIESQIRSLSGVDVEDVRKFLDKEWAWVKELLAEHPAELAEVEAARAARLAELRAEVEAKVAA	0.49
R13E (designed binder) MTLQELLREEALERAEAEAFRYALELLAEKFPEQKEYLLDLAEEIESQIRSLSGVDVEDVRKFLDKEWAWVKELLAEHPAELAEVEAARAARLAELRAEVEAKVAA	0.405
Y22S (designed binder) MTLQELLREEALRRAEAEAFRSALELLAEKFPEQKEYLLDLAEEIESQIRSLSGVDVEDVRKFLDKEWAWVKELLAEHPAELAEVEAARAARLAELRAEVEAKVAA	0.79
D40R (designed binder) MTLQELLREEALRRAEAEAFRYALELLAEKFPEQKEYLLRLAEEIESQIRSLSGVDVEDVRKFLDKEWAWVKELLAEHPAELAEVEAARAARLAELRAEVEAKVAA	12.5

Second part, the binder after the results:

apparent Kd (screen) [nM]	Binder
0.142	L27D (designed binder) MTLQELLREEALRRAEAEAFRYALELDAEKFPEQKEYLLDLAEEIESQIRSLSGVDVEDVRKFLDKEWAWVKELLAEHPAELAEVEAARAARLAELRAEVEAKVAA
3	D40T (designed binder) MTLQELLREEALRRAEAEAFRYALELLAEKFPEQKEYLLTLAEEIESQIRSLSGVDVEDVRKFLDKEWAWVKELLAEHPAELAEVEAARAARLAELRAEVEAKVAA
1.86	R61N (designed binder) MTLQELLREEALRRAEAEAFRYALELLAEKFPEQKEYLLDLAEEIESQIRSLSGVDVEDVNKFLDKEWAWVKELLAEHPAELAEVEAARAARLAELRAEVEAKVAA
0.539	Q4C (designed binder) MTLCELLREEALRRAEAEAFRYALELLAEKFPEQKEYLLDLAEEIESQIRSLSGVDVEDVRKFLDKEWAWVKELLAEHPAELAEVEAARAARLAELRAEVEAKVAA
0.446	H78F (designed binder) MTLQELLREEALRRAEAEAFRYALELLAEKFPEQKEYLLDLAEEIESQIRSLSGVDVEDVRKFLDKEWAWVKELLAEFPAELAEVEAARAARLAELRAEVEAKVAA
1.16	F31K (designed binder) MTLQELLREEALRRAEAEAFRYALELLAEKKPEQKEYLLDLAEEIESQIRSLSGVDVEDVRKFLDKEWAWVKELLAEHPAELAEVEAARAARLAELRAEVEAKVAA
2.48	G54I (designed binder) MTLQELLREEALRRAEAEAFRYALELLAEKFPEQKEYLLDLAEEIESQIRSLSIVDVEDVRKFLDKEWAWVKELLAEHPAELAEVEAARAARLAELRAEVEAKVAA
0.446	E43N (designed binder) MTLQELLREEALRRAEAEAFRYALELLAEKFPEQKEYLLDLANEIESQIRSLSGVDVEDVRKFLDKEWAWVKELLAEHPAELAEVEAARAARLAELRAEVEAKVAA
4.83	L6Q (designed binder) MTLQEQLREEALRRAEAEAFRYALELLAEKFPEQKEYLLDLAEEIESQIRSLSGVDVEDVRKFLDKEWAWVKELLAEHPAELAEVEAARAARLAELRAEVEAKVAA
0.49	E77N (designed binder) MTLQELLREEALRRAEAEAFRYALELLAEKFPEQKEYLLDLAEEIESQIRSLSGVDVEDVRKFLDKEWAWVKELLANHPAELAEVEAARAARLAELRAEVEAKVAA
0.956	A91I (designed binder) MTLQELLREEALRRAEAEAFRYALELLAEKFPEQKEYLLDLAEEIESQIRSLSGVDVEDVRKFLDKEWAWVKELLAEHPAELAEVEAARAIRLAELRAEVEAKVAA
0.539	A23Q (designed binder) MTLQELLREEALRRAEAEAFRYQLELLAEKFPEQKEYLLDLAEEIESQIRSLSGVDVEDVRKFLDKEWAWVKELLAEHPAELAEVEAARAARLAELRAEVEAKVAA
1.16	A23F (designed binder) MTLQELLREEALRRAEAEAFRYFLELLAEKFPEQKEYLLDLAEEIESQIRSLSGVDVEDVRKFLDKEWAWVKELLAEHPAELAEVEAARAARLAELRAEVEAKVAA
0.653	L26I (designed binder) MTLQELLREEALRRAEAEAFRYALEILAEKFPEQKEYLLDLAEEIESQIRSLSGVDVEDVRKFLDKEWAWVKELLAEHPAELAEVEAARAARLAELRAEVEAKVAA
0.539	E84G (designed binder) MTLQELLREEALRRAEAEAFRYALELLAEKFPEQKEYLLDLAEEIESQIRSLSGVDVEDVRKFLDKEWAWVKELLAEHPAELAGVEAARAARLAELRAEVEAKVAA
1.16	V104H (designed binder) MTLQELLREEALRRAEAEAFRYALELLAEKFPEQKEYLLDLAEEIESQIRSLSGVDVEDVRKFLDKEWAWVKELLAEHPAELAEVEAARAARLAELRAEVEAKHAA
0.956	E84M (designed binder) MTLQELLREEALRRAEAEAFRYALELLAEKFPEQKEYLLDLAEEIESQIRSLSGVDVEDVRKFLDKEWAWVKELLAEHPAELAMVEAARAARLAELRAEVEAKVAA
